Measured values taken from article PMC9482650, “Quantitative fragmentomics allow affinity mapping of interactomes” (Nature Communications, 2022).

These binders were tested against T1, APBA3_1, O96018 (assay: holdup assay). Settings: plain residues with an end cap or a label only (N-terminal biotin on a linker: ado-ado).
T1 sequence (O96018 389-490, limits assumed, looked up): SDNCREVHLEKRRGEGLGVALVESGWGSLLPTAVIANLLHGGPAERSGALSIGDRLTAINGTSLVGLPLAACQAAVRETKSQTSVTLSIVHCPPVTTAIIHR
Design: key: below the threshold = too weak to quantify, mostly under pKd 3.1 to 4
With MHIQEKGFHV [EPHA6, Q9UF33] the pKd was “below the threshold”.
GTGYDRKDYV [CLDN3, O15551] was tested, and the pKd was “below the threshold”.

Each binder was assayed against Inadl_5, Q8NI35 (assay: holdup assay). Settings: plain residues with an end cap or a label only (N-terminal biotin on a linker: ado-ado).
Inadl_5, Q8NI35, sequence (Q8NI35 673-780): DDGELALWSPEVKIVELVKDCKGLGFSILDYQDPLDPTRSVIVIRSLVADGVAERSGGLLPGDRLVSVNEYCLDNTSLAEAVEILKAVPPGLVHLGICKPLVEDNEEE
Design: key: below the threshold = too weak to quantify, mostly under pKd 3.1 to 4
For MHIQEKGFHV [EPHA6, Q9UF33], the pKd was “below the threshold”.
Binder GTGYDRKDYV [CLDN3, O15551] has a pKd of 3.49.

What follows are binders tested against T2, GRIP1_7, Q9Y3R0 (assay: holdup assay). Settings: plain residues with an end cap or a label only (N-terminal biotin on a linker: ado-ado).
T2 sequence (Q9Y3R0 999-1096, limits assumed, looked up): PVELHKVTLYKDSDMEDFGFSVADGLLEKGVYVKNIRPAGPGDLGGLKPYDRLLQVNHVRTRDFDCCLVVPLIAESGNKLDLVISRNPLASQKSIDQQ
Design: key: below the threshold = too weak to quantify, mostly under pKd 3.1 to 4
With MHIQEKGFHV [EPHA6, Q9UF33] the pKd was “below the threshold”.
In the case of GTGYDRKDYV [CLDN3, O15551], the pKd is reported as “below the threshold”.

The binders below were run against T3, PTPN13_1, Q12923 (assay: holdup assay). Settings: plain residues with an end cap or a label only (N-terminal biotin on a linker: ado-ado).
T3 sequence (Q12923 1088-1188, limits assumed, looked up): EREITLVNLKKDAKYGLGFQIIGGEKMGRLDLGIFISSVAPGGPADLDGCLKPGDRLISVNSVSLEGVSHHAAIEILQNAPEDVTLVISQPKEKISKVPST
Design: key: below the threshold = too weak to quantify, mostly under pKd 3.1 to 4
For MHIQEKGFHV [EPHA6, Q9UF33], the pKd was “below the threshold”.
For GTGYDRKDYV [CLDN3, O15551], the pKd was “below the threshold”.

These binders were tested against T4, SYNJ2BP, P57105 (assay: holdup assay). Settings: plain residues with an end cap or a label only (N-terminal biotin on a linker: ado-ado).
T4 sequence (P57105 8-110, limits assumed, looked up): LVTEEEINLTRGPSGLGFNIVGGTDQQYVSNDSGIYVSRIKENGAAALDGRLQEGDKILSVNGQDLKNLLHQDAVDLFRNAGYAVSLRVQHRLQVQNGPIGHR
Design: key: below the threshold = too weak to quantify, mostly under pKd 3.1 to 4
For MHIQEKGFHV [EPHA6, Q9UF33], the pKd was “below the threshold”.
For GTGYDRKDYV [CLDN3, O15551], the pKd was “below the threshold”.

These binders were tested against DLG1_1, Q12959 (assay: holdup assay). Settings: plain residues with an end cap or a label only (N-terminal biotin on a linker: ado-ado).
Design: key: below the threshold = too weak to quantify, mostly under pKd 3.1 to 4
MHIQEKGFHV [EPHA6, Q9UF33] was tested, and the pKd was “below the threshold”.
With GTGYDRKDYV [CLDN3, O15551] the pKd was “below the threshold”.

Each binder was assayed against CASK, O14936 (assay: holdup assay). Settings: plain residues with an end cap or a label only (N-terminal biotin on a linker: ado-ado).
CASK, O14936, sequence (O14936 487-570): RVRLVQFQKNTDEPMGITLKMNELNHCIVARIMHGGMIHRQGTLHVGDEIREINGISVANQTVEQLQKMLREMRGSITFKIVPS
Design: key: below the threshold = too weak to quantify, mostly under pKd 3.1 to 4
With MHIQEKGFHV [EPHA6, Q9UF33] the pKd was “below the threshold”.
In the case of GTGYDRKDYV [CLDN3, O15551], the pKd is reported as “below the threshold”.

What follows are binders tested against DLG1_3, Q12959 (assay: holdup assay). Settings: plain residues with an end cap or a label only (N-terminal biotin on a linker: ado-ado).
Design: key: below the threshold = too weak to quantify, mostly under pKd 3.1 to 4
In the case of MHIQEKGFHV [EPHA6, Q9UF33], the pKd is reported as “below the threshold”.
GTGYDRKDYV [CLDN3, O15551] showed a pKd of 3.67.

These binders were tested against T5, APBA2_1, Q99767 (assay: holdup assay). Settings: plain residues with an end cap or a label only (N-terminal biotin on a linker: ado-ado).
T5 sequence (Q99767 563-664, limits assumed, looked up): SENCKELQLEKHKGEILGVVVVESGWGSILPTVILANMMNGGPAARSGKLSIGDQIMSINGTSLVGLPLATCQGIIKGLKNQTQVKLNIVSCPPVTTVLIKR
Design: key: below the threshold = too weak to quantify, mostly under pKd 3.1 to 4
For MHIQEKGFHV [EPHA6, Q9UF33], the pKd was “below the threshold”.
GTGYDRKDYV [CLDN3, O15551] was tested, and the pKd was “below the threshold”.

The binders below were run against T6, TJP3_3, O95049 (assay: holdup assay). Settings: plain residues with an end cap or a label only (N-terminal biotin on a linker: ado-ado).
T6 sequence (O95049 375-456, limits assumed, looked up): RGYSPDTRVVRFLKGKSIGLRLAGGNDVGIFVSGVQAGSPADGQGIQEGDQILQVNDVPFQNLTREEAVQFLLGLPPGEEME
Design: key: below the threshold = too weak to quantify, mostly under pKd 3.1 to 4
MHIQEKGFHV [EPHA6, Q9UF33] was tested, and the pKd was “below the threshold”.
GTGYDRKDYV [CLDN3, O15551] gave a pKd of 3.73.

The binders below were run against T7, MPDZ_12, O75970 (assay: holdup assay). Settings: plain residues with an end cap or a label only (N-terminal biotin on a linker: ado-ado).
T7 sequence (O75970 1857-1958, limits assumed, looked up): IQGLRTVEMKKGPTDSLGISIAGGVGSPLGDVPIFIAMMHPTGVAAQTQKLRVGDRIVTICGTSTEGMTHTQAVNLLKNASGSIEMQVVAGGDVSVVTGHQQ
Design: key: below the threshold = too weak to quantify, mostly under pKd 3.1 to 4
MHIQEKGFHV [EPHA6, Q9UF33] was tested, and the pKd was “below the threshold”.
For GTGYDRKDYV [CLDN3, O15551], the pKd was “below the threshold”.

Each binder was assayed against T8, NHERF3_1, Q5T2W1 (assay: holdup assay). Settings: plain residues with an end cap or a label only (N-terminal biotin on a linker: ado-ado).
T8 sequence (Q5T2W1 4-100, limits assumed, looked up): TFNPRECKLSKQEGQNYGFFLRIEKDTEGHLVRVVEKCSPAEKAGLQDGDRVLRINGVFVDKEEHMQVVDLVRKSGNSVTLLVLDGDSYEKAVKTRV
Design: key: below the threshold = too weak to quantify, mostly under pKd 3.1 to 4
For MHIQEKGFHV [EPHA6, Q9UF33], the pKd was 3.71.
In the case of GTGYDRKDYV [CLDN3, O15551], the pKd is reported as 4.55.

What follows are binders tested against LNX1_3, Q8TBB1 (assay: holdup assay). Settings: plain residues with an end cap or a label only (N-terminal biotin on a linker: ado-ado).
LNX1_3, Q8TBB1, sequence (Q8TBB1 500-596): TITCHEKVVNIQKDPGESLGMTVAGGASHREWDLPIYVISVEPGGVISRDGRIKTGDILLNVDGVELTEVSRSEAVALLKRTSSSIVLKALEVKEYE
Design: key: below the threshold = too weak to quantify, mostly under pKd 3.1 to 4
For MHIQEKGFHV [EPHA6, Q9UF33], the pKd was “below the threshold”.
GTGYDRKDYV [CLDN3, O15551] gave a pKd of 3.49.

Each binder was assayed against T9, DFNB31_2, Q9P202 (assay: holdup assay). Settings: plain residues with an end cap or a label only (N-terminal biotin on a linker: ado-ado).
T9 sequence (Q9P202 274-371, limits assumed, looked up): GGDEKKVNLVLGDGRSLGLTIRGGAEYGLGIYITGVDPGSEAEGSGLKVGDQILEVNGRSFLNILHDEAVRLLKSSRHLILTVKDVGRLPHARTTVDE
Design: key: below the threshold = too weak to quantify, mostly under pKd 3.1 to 4
For MHIQEKGFHV [EPHA6, Q9UF33], the pKd was “below the threshold”.
GTGYDRKDYV [CLDN3, O15551] was tested, and the pKd was “below the threshold”.

These binders were tested against NHERF4_4, Q86UT5 (assay: holdup assay). Settings: plain residues with an end cap or a label only (N-terminal biotin on a linker: ado-ado).
NHERF4_4, Q86UT5, sequence (Q86UT5 464-550): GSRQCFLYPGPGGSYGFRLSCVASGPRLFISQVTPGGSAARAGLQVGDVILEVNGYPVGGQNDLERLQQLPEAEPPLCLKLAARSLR
Design: key: below the threshold = too weak to quantify, mostly under pKd 3.1 to 4
With MHIQEKGFHV [EPHA6, Q9UF33] the pKd was “below the threshold”.
In the case of GTGYDRKDYV [CLDN3, O15551], the pKd is reported as “below the threshold”.

The binders below were run against GRIP2_7, Q9C0E4 (assay: holdup assay). Settings: plain residues with an end cap or a label only (N-terminal biotin on a linker: ado-ado).
GRIP2_7, Q9C0E4, sequence (Q9C0E4 934-1023): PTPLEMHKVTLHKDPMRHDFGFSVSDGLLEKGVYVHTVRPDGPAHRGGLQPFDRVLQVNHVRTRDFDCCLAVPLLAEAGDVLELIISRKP
Design: key: below the threshold = too weak to quantify, mostly under pKd 3.1 to 4
In the case of MHIQEKGFHV [EPHA6, Q9UF33], the pKd is reported as 3.93.
In the case of GTGYDRKDYV [CLDN3, O15551], the pKd is reported as “below the threshold”.

Each binder was assayed against PDZRN4_1, Q6ZMN7 (assay: holdup assay). Settings: plain residues with an end cap or a label only (N-terminal biotin on a linker: ado-ado).
PDZRN4_1, Q6ZMN7, sequence (Q6ZMN7 213-318): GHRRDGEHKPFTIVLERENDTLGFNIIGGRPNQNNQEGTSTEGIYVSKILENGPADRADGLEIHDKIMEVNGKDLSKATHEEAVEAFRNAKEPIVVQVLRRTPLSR
Design: key: below the threshold = too weak to quantify, mostly under pKd 3.1 to 4
For MHIQEKGFHV [EPHA6, Q9UF33], the pKd was “below the threshold”.
GTGYDRKDYV [CLDN3, O15551] was tested, and the pKd was “below the threshold”.

These binders were tested against MAGI2_2, Q86UL8 (assay: holdup assay). Settings: plain residues with an end cap or a label only (N-terminal biotin on a linker: ado-ado).
MAGI2_2, Q86UL8, sequence (Q86UL8 410-522): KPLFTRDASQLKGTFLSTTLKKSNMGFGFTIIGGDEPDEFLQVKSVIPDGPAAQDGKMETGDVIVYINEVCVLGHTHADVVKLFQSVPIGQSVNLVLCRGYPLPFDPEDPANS
Design: key: below the threshold = too weak to quantify, mostly under pKd 3.1 to 4
In the case of MHIQEKGFHV [EPHA6, Q9UF33], the pKd is reported as “below the threshold”.
With GTGYDRKDYV [CLDN3, O15551] the pKd was “below the threshold”.

Each binder was assayed against MAGI2_4, Q86UL8 (assay: holdup assay). Settings: plain residues with an end cap or a label only (N-terminal biotin on a linker: ado-ado).
MAGI2_4, Q86UL8, sequence (Q86UL8 772-865): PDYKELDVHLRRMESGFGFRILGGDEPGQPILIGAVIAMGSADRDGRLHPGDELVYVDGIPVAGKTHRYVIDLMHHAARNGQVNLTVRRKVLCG
Design: key: below the threshold = too weak to quantify, mostly under pKd 3.1 to 4
MHIQEKGFHV [EPHA6, Q9UF33] was tested, and the pKd was “below the threshold”.
GTGYDRKDYV [CLDN3, O15551] gave a pKd of 3.85.

Each binder was assayed against T10, MPDZ_10, O75970 (assay: holdup assay). Settings: plain residues with an end cap or a label only (N-terminal biotin on a linker: ado-ado).
T10 sequence (O75970 1624-1722, limits assumed, looked up): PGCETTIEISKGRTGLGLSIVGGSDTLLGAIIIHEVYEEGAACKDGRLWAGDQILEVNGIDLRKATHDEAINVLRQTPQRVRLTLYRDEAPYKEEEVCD
Design: key: below the threshold = too weak to quantify, mostly under pKd 3.1 to 4
With MHIQEKGFHV [EPHA6, Q9UF33] the pKd was “below the threshold”.
GTGYDRKDYV [CLDN3, O15551] gave a pKd of 3.51.

What follows are binders tested against DLG1_2, Q12959 (assay: holdup assay). Settings: plain residues with an end cap or a label only (N-terminal biotin on a linker: ado-ado).
Design: key: below the threshold = too weak to quantify, mostly under pKd 3.1 to 4
In the case of MHIQEKGFHV [EPHA6, Q9UF33], the pKd is reported as “below the threshold”.
For GTGYDRKDYV [CLDN3, O15551], the pKd was “below the threshold”.

The binders below were run against T11, SNTA1, Q13424 (assay: holdup assay). Settings: plain residues with an end cap or a label only (N-terminal biotin on a linker: ado-ado).
T11 sequence (Q13424 82-180, limits assumed, looked up): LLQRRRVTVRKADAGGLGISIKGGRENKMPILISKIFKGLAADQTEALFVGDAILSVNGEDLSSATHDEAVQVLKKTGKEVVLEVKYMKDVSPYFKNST
Design: key: below the threshold = too weak to quantify, mostly under pKd 3.1 to 4
For MHIQEKGFHV [EPHA6, Q9UF33], the pKd was “below the threshold”.
With GTGYDRKDYV [CLDN3, O15551] the pKd was “below the threshold”.

These binders were tested against MAGI1_2, Q96QZ7 (assay: holdup assay). Settings: plain residues with an end cap or a label only (N-terminal biotin on a linker: ado-ado).
MAGI1_2, Q96QZ7, sequence (Q96QZ7 456-580): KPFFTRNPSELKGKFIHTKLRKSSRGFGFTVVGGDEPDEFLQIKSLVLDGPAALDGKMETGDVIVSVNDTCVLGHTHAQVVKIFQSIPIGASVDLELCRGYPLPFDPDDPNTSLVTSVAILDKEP
Design: key: below the threshold = too weak to quantify, mostly under pKd 3.1 to 4
For MHIQEKGFHV [EPHA6, Q9UF33], the pKd was “below the threshold”.
With GTGYDRKDYV [CLDN3, O15551] the pKd was “below the threshold”.

These binders were tested against T12, LRRC7, Q96NW7 (assay: holdup assay). Settings: plain residues with an end cap or a label only (N-terminal biotin on a linker: ado-ado).
T12 sequence (Q96NW7 1440-1537, limits assumed, looked up): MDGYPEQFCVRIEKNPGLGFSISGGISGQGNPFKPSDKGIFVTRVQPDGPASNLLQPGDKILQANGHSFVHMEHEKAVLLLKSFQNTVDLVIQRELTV
Design: key: below the threshold = too weak to quantify, mostly under pKd 3.1 to 4
With MHIQEKGFHV [EPHA6, Q9UF33] the pKd was “below the threshold”.
For GTGYDRKDYV [CLDN3, O15551], the pKd was “below the threshold”.

Each binder was assayed against T13, RHPN1, Q8TCX5 (assay: holdup assay). Settings: plain residues with an end cap or a label only (N-terminal biotin on a linker: ado-ado).
T13 sequence (Q8TCX5 508-602, limits assumed, looked up): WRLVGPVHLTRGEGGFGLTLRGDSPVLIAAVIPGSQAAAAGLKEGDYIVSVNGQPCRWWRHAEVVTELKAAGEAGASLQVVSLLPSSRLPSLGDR
Design: key: below the threshold = too weak to quantify, mostly under pKd 3.1 to 4
In the case of MHIQEKGFHV [EPHA6, Q9UF33], the pKd is reported as “below the threshold”.
For GTGYDRKDYV [CLDN3, O15551], the pKd was “below the threshold”.
